In publication PMC6631321 (Science signaling, 2019):
Substitutions are numbered along the chain they refer to. Names and notes keep the numbering of the source. Values joined by “and” are separate entries in the source; they are usually repeats but may differ in a detail not shown here. Equal values may be shown once. Values belong to the molecule of their own block, whether it stands above or below them.

Assays:
[1] = biological target: the remaining proteins (α-actinin, afadin, band 4.1B, Scrib, and ZO-1); assay: co-IP
RFP-Lats1 [2] = biological target: T1, RFP-Lats1 (UniProt O95835 1-1130); assay: co-IP
T1 sequence (looked up): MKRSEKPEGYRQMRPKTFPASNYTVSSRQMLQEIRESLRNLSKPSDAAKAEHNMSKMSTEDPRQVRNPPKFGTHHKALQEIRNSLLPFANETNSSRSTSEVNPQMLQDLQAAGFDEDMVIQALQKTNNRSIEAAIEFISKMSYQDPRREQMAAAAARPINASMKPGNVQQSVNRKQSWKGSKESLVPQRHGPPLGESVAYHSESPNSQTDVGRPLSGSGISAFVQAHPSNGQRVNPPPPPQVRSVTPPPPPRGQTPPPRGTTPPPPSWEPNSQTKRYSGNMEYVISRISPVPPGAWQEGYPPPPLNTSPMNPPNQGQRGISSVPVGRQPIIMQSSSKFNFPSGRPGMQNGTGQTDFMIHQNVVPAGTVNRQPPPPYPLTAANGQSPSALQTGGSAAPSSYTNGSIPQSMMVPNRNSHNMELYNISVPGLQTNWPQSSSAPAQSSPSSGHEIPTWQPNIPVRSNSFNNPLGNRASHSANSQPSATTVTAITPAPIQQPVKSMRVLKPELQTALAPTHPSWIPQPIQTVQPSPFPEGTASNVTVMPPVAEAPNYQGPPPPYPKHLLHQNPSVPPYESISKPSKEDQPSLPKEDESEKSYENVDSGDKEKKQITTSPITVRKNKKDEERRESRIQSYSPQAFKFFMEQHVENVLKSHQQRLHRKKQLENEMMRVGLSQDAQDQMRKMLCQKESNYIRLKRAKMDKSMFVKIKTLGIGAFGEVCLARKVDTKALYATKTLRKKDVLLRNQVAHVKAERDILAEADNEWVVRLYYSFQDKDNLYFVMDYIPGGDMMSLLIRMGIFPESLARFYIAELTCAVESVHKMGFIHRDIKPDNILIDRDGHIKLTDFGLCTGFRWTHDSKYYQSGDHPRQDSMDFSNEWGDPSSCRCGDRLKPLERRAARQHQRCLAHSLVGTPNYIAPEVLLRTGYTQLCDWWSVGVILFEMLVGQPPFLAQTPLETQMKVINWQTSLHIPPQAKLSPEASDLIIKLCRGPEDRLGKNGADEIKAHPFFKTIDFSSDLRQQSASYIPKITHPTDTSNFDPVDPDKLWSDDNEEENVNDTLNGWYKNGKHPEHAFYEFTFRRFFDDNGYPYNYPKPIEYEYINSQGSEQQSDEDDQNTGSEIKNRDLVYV

RFP-Angiomotin, Q4VCS5 [3] = assay: co-IP; conditions: remark: other sources report otherwise
RFP-ASPP2 [4] = biological target: T2, RFP-ASPP2 (UniProt Q13625 1-1128); assay: pull-down
T2 sequence (looked up): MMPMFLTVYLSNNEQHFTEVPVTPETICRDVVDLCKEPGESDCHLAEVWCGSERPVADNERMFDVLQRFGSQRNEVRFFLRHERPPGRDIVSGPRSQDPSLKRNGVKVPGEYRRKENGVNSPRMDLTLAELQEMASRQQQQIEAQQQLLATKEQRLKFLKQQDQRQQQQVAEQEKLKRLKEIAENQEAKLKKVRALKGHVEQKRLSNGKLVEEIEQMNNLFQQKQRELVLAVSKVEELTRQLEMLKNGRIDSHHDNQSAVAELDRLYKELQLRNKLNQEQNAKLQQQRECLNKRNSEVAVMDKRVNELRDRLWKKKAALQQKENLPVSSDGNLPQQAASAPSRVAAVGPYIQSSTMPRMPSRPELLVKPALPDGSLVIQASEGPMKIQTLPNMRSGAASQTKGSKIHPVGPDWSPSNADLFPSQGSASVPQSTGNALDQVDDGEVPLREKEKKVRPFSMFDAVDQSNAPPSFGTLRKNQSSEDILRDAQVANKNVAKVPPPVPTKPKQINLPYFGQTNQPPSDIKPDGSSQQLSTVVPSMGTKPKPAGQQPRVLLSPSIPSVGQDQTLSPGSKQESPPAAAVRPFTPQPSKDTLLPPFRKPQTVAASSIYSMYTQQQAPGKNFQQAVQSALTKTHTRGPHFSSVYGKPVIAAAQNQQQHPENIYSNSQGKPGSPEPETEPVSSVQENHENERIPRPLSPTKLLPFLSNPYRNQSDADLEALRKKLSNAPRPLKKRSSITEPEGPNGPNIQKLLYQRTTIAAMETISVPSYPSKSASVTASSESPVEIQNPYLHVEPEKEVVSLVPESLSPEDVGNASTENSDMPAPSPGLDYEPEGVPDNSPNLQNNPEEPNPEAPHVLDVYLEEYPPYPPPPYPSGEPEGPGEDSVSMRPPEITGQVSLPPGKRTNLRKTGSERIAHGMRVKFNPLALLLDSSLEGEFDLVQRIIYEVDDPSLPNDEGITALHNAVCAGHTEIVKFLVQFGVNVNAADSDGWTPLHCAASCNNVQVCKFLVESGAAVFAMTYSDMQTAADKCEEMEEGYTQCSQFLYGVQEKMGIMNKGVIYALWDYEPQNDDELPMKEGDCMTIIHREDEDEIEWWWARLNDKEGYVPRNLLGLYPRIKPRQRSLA

RFP-Lats1 [5] = biological target: T1, RFP-Lats1; assay: pull-down
RFP-Angiomotin, Q4VCS5 [6] = assay: pull-down; conditions: remark: other sources report otherwise
RFP-ASPP2 [7] = biological target: T2, RFP-ASPP2; assay: pull-down; remark: listed apart in the source

Sequence of RFP-Angiomotin, Q4VCS5 (Q4VCS5 whole entry): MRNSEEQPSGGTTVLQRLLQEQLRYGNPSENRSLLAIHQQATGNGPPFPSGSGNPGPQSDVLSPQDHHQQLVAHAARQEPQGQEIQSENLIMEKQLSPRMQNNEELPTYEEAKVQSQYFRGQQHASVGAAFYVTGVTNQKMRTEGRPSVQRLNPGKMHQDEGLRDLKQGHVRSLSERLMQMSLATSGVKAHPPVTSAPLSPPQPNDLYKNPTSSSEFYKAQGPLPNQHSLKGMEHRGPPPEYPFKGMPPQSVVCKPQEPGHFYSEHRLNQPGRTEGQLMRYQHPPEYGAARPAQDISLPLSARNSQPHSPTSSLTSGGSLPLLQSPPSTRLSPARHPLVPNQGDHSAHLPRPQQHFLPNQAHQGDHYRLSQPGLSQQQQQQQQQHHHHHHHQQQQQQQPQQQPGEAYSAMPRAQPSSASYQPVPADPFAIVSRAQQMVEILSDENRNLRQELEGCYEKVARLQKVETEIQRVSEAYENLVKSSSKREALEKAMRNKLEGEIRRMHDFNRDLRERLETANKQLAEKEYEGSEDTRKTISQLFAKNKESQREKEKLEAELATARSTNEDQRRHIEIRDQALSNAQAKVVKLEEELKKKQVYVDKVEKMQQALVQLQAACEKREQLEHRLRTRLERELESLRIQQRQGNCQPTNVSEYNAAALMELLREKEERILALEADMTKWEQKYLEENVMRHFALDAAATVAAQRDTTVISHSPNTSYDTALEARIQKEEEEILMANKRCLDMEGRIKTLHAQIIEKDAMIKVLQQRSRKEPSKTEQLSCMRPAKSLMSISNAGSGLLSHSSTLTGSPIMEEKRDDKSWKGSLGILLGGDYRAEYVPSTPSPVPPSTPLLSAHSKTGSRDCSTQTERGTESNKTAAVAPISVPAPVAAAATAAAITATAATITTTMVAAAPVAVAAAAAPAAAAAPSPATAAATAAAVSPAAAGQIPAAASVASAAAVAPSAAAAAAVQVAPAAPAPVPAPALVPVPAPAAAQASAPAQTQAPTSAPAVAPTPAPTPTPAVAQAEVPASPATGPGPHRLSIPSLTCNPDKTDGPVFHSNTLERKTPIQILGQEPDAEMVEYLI

- fold over the negative control (RFP alone), co-precipitated luciferase [1]: 2 fold and 5 fold
Molecule: Merlin-NLuc (from UniProt P35240 1-595) (natural protein)

- fold over the negative control (RFP alone), co-precipitated luciferase (RFP-Lats1 [2]): > 20 fold
- fold over the negative control (RFP alone), co-precipitated luciferase (RFP-Angiomotin, Q4VCS5 [3]): 100 fold
- fold over the negative control (RFP alone), bound luciferase (RFP-ASPP2 [4]): 125 fold
- fold over the negative control (RFP alone), bound luciferase (RFP-Lats1 [5]): 268 fold
- fold over the negative control (RFP alone), bound luciferase (RFP-Angiomotin, Q4VCS5 [6]): 2300 fold
B1: Merlin-NLuc (natural protein, UniProt P35240 1-595, looked up)
chain: MAGAIASRMSFSSLKRKQPKTFTVRIVTMDAEMEFNCEMKWKGKDLFDLVCRTLGLRETWFFGLQYTIKDTVAWLKMDKKVLDHDVSKEEPVTFHFLAKFYPENAEEELVQEITQHLFFLQVKKQILDEKIYCPPEASVLLASYAVQAKYGDYDPSVHKRGFLAQEELLPKRVINLYQMTPEMWEERITAWYAEHRGRARDEAEMEYLKIAQDLEMYGVNYFAIRNKKGTELLLGVDALGLHIYDPENRLTPKISFPWNEIRNISYSDKEFTIKPLDKKIDVFKFNSSKLRVNKLILQLCIGNHDLFMRRRKADSLEVQQMKAQAREEKARKQMERQRLAREKQMREEAERTRDELERRLLQMKEEATMANEALMRSEETADLLAEKAQITEEEAKLLAQKAAEAEQEMQRIKATAIRTEEEKRLMEQKVLEAEVLALKMAEESERRAKEADQLKQDLQEAREAERRAKQKLLEIATKPTYPPMNPIPAPLPPDIPSFNLIGDSLSFDFKDTDMKRLSMEIEKEKVEYMEKSKHLQEQLNELKTEIEALKLKERETALDILHNENSDRGGSSKHNTIKKLTLQSAKSRVAFFEEL

- fold greater than binding to wild-type Merlin (RFP-ASPP2 [7]): ~2 fold
B2: Merlin S518A (natural protein, UniProt P35240 1-595, looked up)
chain: B1 chain with S518A

- fold less than binding to wild-type Merlin (RFP-ASPP2 [7]): > 2 fold
B3: Merlin S518D (natural protein, UniProt P35240 1-595, looked up)
chain: B1 chain with S518D
